From the Human Domainome abundance scans (Beltran et al. 2025)
± gives the uncertainty stated by the source.

B1: Cell division cycle and apoptosis regulator protein 1, residues 625 to 674; numbered along this chain, Q8IX12 (parent)
chain: ISTPTHWSKLDPKTMKVNDLRKELESRALSSKGLKSQLIARLTKQLKVEE

Variants of: B1
Test: abundance fitness (aPCA) (normalised: wild type 0, dead -1); higher = more abundant; growth selection in yeast, the domain comes from the species named
Conditions: Homo sapiens

| Variant | abundance fitness |
| --- | --- |
| ISTPTHWSKLDIKTMKVNDLRKELESRALSSKGLKSQLIARLTKQLKVEE | -0.324 ± 0.069 |
| ISTPTHWSKLDPKTMKVNDLRKELESRALSSKGLKHQLIARLTKQLKVEE | -0.195 ± 0.058 |
| ISTWTHWSKLDPKTMKVNDLRKELESRALSSKGLKSQLIARLTKQLKVEE | -0.142 ± 0.058 |
| ISTPTHWSKLDPKTMKHNDLRKELESRALSSKGLKSQLIARLTKQLKVEE | -0.165 ± 0.066 |
| ISTPTHWSLLDPKTMKVNDLRKELESRALSSKGLKSQLIARLTKQLKVEE | -0.066 ± 0.031 |
| ISTPTHASKLDPKTMKVNDLRKELESRALSSKGLKSQLIARLTKQLKVEE | -0.088 ± 0.035 |
| ISTPTHWSKLDPKTMKVNDLRKELESRALSSKGLKSFLIARLTKQLKVEE | -0.256 ± 0.047 |
| IVTPTHWSKLDPKTMKVNDLRKELESRALSSKGLKSQLIARLTKQLKVEE | 0.06 ± 0.036 |
| ISTPTHWSKLDPKTMKVNDLRKELESRALSSKGLKSQDIARLTKQLKVEE | -0.332 ± 0.045 |
| ISTPTHWSKLSPKTMKVNDLRKELESRALSSKGLKSQLIARLTKQLKVEE | 0.051 ± 0.039 |
| ISTPTHWSKLDPHTMKVNDLRKELESRALSSKGLKSQLIARLTKQLKVEE | -0.135 ± 0.061 |
| ISTPTHWSKLDPKTMKVNDLRKELESRALSSKGLKSQLIADLTKQLKVEE | -0.434 ± 0.096 |
| ISTPTHWSKLDWKTMKVNDLRKELESRALSSKGLKSQLIARLTKQLKVEE | -0.488 ± 0.036 |
| ISTPTHWSKLDPKTMKVNDLRFELESRALSSKGLKSQLIARLTKQLKVEE | -0.16 ± 0.06 |
| ISTPTHWSKLDPKTMKVNDLRKELESRALSSKGLKSQLIARLTKQAKVEE | -0.549 ± 0.049 |
| NSTPTHWSKLDPKTMKVNDLRKELESRALSSKGLKSQLIARLTKQLKVEE | -0.33 ± 0.093 |
| ISTPTHWSKLDPKIMKVNDLRKELESRALSSKGLKSQLIARLTKQLKVEE | 0.007 ± 0.039 |
| ISTPTHWSKLDPKTMKVNDLRKELESRALSPKGLKSQLIARLTKQLKVEE | -0.062 ± 0.045 |
| ISTPTHWSKLDPKTMKVNDLRKELEYRALSSKGLKSQLIARLTKQLKVEE | 0.044 ± 0.065 |
| ISRPTHWSKLDPKTMKVNDLRKELESRALSSKGLKSQLIARLTKQLKVEE | -0.076 ± 0.034 |
| ISTPTHWSGLDPKTMKVNDLRKELESRALSSKGLKSQLIARLTKQLKVEE | -0.154 ± 0.038 |
| ISTPTHWSKLDPKTMKVNDLRKELESRILSSKGLKSQLIARLTKQLKVEE | 0.074 ± 0.064 |
| ISTPTHWSKLDPKTMKVNDLRKELESRALSSKGLKSQLIARMTKQLKVEE | -0.206 ± 0.057 |
| ISTPTHWSKLDPKTMKVNDLRNELESRALSSKGLKSQLIARLTKQLKVEE | -0.097 ± 0.04 |
| ISTPTHWSKLDPKTMKVNDLRKELESRALSSKGLKSQLIARWTKQLKVEE | -0.929 ± 0.095 |
| ISTPTHWSKLDPKTMKVNDLRKELESRALSSKGLKKQLIARLTKQLKVEE | -0.118 ± 0.062 |

| Variant | abundance fitness |
| --- | --- |
| ISTPTHWSHLDPKTMKVNDLRKELESRALSSKGLKSQLIARLTKQLKVEE | -0.091 ± 0.049 |
| ISTPTHWSKLDPKTMWVNDLRKELESRALSSKGLKSQLIARLTKQLKVEE | -0.354 ± 0.041 |
| ISTPTHWSKLDPKTMKVNDLEKELESRALSSKGLKSQLIARLTKQLKVEE | -0.541 ± 0.036 |
| ISTPTHWRKLDPKTMKVNDLRKELESRALSSKGLKSQLIARLTKQLKVEE | -0.189 ± 0.057 |
| ISTPTHWSKLDPKTMKVNDLRKELESRALSSKGLKSQLIARLTKQLKVPE | -0.86 ± 0.068 |
| ISTPTHWSKLDPKTMKVNDLRKELESRTLSSKGLKSQLIARLTKQLKVEE | 0.085 ± 0.037 |
| ISTPTHWSKLDPKTMKVNDLRKELESRALSSKGLKSQLIARCTKQLKVEE | -0.795 ± 0.12 |
| ISTPTHWSDLDPKTMKVNDLRKELESRALSSKGLKSQLIARLTKQLKVEE | -0.084 ± 0.054 |
| ISTPTHWSKLDPKTMKVNDLRKELESRALSSKGLKSQLIARLTKQLKVYE | -1.21 ± 0.32 |
| ISTPTHWSKLDPKTMKVNDLRKELEDRALSSKGLKSQLIARLTKQLKVEE | 0.031 ± 0.062 |
| ISTPTHWSKLCPKTMKVNDLRKELESRALSSKGLKSQLIARLTKQLKVEE | 0.093 ± 0.031 |
| ISTPTHWSKLDPKTMPVNDLRKELESRALSSKGLKSQLIARLTKQLKVEE | -0.15 ± 0.038 |
| ISTPTHWSKLDPNTMKVNDLRKELESRALSSKGLKSQLIARLTKQLKVEE | 0.081 ± 0.067 |
| ISTPTHWSKLDPKTMKVNDLRKELESRALSSKGLKSQLIFRLTKQLKVEE | 0.032 ± 0.059 |
| ISTPTHWSKLDPKTMKVNDLRKELESRALSSKGLKSQLIARITKQLKVEE | -0.231 ± 0.041 |
| ISTPTHWSKLDPKTMKVNDLRKELESRALSSKGLKSQLIARLTPQLKVEE | -0.652 ± 0.075 |
| ISTPTHWSKLDPKTMKVNDLRKELESRALSSKGLKSQLIARLTKQIKVEE | -0.146 ± 0.047 |
| ISTPTHESKLDPKTMKVNDLRKELESRALSSKGLKSQLIARLTKQLKVEE | -0.139 ± 0.056 |
| ISTPTHWSKLDPKTMKVNDLRKELESRALSSKGLKSQLIARLTKALKVEE | -0.045 ± 0.033 |
| ISTPTHWSKLDPKEMKVNDLRKELESRALSSKGLKSQLIARLTKQLKVEE | -0.011 ± 0.034 |
| ISTPTHWSKLDPKTMKVNDLRKELEPRALSSKGLKSQLIARLTKQLKVEE | -0.61 ± 0.056 |
| ISTPTHWSKLDPKTMKVNDLRKELESRALSSKGLKSQLIARLTKQLKVQE | -0.592 ± 0.056 |
| ISTPTHWSKLDPKTMKVNDLRKELESRALSSKGEKSQLIARLTKQLKVEE | -0.113 ± 0.031 |
| ISTPTHWSKLDPKTMKVNDLRCELESRALSSKGLKSQLIARLTKQLKVEE | -0.134 ± 0.05 |
| ISTPTHWSKLDPKTMKVNDLRHELESRALSSKGLKSQLIARLTKQLKVEE | 0.024 ± 0.039 |
| ISTPTHWSKLDPKTMKVNDLRKELESRALSSKGLKSQLIARLTKQLAVEE | -0.146 ± 0.045 |
